Measurements: patent publication US20190307836A1 (Bicycle, published 2019)
Starred links: 1 amine or outer side, 2 acyl side, 3 side chain; linkers in the order of their positions; H or OH if unused. Positions of bridges follow the written chain, without caps; N, C: chain ends. Non-standard residues stand in square brackets, D forms with d. Chains are numbered I, II in the order given. No end group written: not given here. *: point of attachment. TATA = O=C(CC[*:1])N1CN(C(=O)CC[*:2])CN(C(=O)CC[*:3])C1; 1Nal = N[C@@H](Cc1cccc2ccccc12)C(=O)O; Hyp = O=C(O)[C@@H]1C[C@@H](O)CN1; hArg = N=C(N)NCCCC[C@H](N)C(=O)O; tBuAla = CC(C)(C)C[C@H](N)C(=O)O; Nle = CCCC[C@H](N)C(=O)O; Pent4ynoyl = C#CCCC(=O)*; Dap = NC[C@H](N)C(=O)O; βAla = NCCC(=O)O; Sar = CNCC(=O)O

T1: Human Nectin-4 (residues Gly32-Ser349; NCBI RefSeq: NP_112178.2) with C-terminal FLAG tag (human, UniProt Q96NY8 32-349, randomly biotinylated with EZ-Link Sulfo-NHS-LC-LC-Biotin)
T1 construct: range 32-349; also called human Nectin-4 protein; not shown: C-terminal FLAG tag
T1 sequence (looked up): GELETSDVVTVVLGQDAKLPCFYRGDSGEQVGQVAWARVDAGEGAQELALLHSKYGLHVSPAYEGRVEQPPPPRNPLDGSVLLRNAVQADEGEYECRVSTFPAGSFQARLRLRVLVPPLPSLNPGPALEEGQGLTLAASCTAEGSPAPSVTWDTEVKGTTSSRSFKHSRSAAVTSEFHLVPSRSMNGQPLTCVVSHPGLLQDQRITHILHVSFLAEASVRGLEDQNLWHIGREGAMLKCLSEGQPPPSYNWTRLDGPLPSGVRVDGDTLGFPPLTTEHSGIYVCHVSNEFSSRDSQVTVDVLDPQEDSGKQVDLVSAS

B1: heterotandem bicyclic peptide complex BCY10577 (peptide)
peptide 1: {Pent4ynoyl-βAla}-[Sar][Sar][Sar][Sar][Sar][Sar][Sar][Sar][Sar][Sar]A[hArg]DC[Hyp]LVNPLCLHP[dD]W[hArg]C
peptide 2: Ac-C[tBuAla]PE[dA]PYCFADPY[Nle]C[Dap]
modifications: linker I:14-I:21-I:28, II:1-II:8-II:15 via TATA; not fully specified (C-terminus); numbers in words are those of the source; also: chains joined by CH2 linker, triazole from PYA, linker on Dap side chain
B2: heterotandem bicyclic peptide complex BCY9350 (peptide)
peptide 1: CPXDCMXDWSTPXWC
peptide 2: ACIEEGQYCFADPYXC
modifications: BCY7732: N-terminal acetyl; Nle12; C-terminal Dap (diaminopropionic acid) bearing the linker; Ci, Cii, Ciii on TATA scaffold; BCY11942: N-terminal [PYA]-[B-Ala]-[Sar10]- (linker on PYA); 1Nal2, dD3, HArg5, dW7, HyP11, dW12; Ci, Cii, Ciii on TATA scaffold
B3: heterotandem bicyclic peptide complex BCY9351 (peptide)
peptide 1: CPXDCMXDWSTPXWC
peptide 2: ACIEEGQYCFADPYXC
modifications: BCY8045: N-terminal acetyl; D-Ala8, Nle12; C-terminal Dap (diaminopropionic acid) bearing the linker; Ci, Cii, Ciii on TATA scaffold; BCY8846: N-terminal [PYA]-[B-Ala]-[Sar10]- (linker on PYA); 1Nal2, dD3, HArg5, HyP11; Ci, Cii, Ciii on TATA scaffold
B4: heterotandem bicyclic peptide complex BCY8942 (peptide)
peptide 1: AXDCXLVNPLCLHPDWXC
peptide 2: ACIEEGQYCFADPYXC
modifications: BCY8045: N-terminal acetyl; D-Ala8, Nle12; C-terminal Dap (diaminopropionic acid) bearing the linker; Ci, Cii, Ciii on TATA scaffold; BCY6169: N-terminal [PYA]-[B-Ala]-[Sar10]- (linker on PYA); HArg in the A-[HArg]-D extension; HyP1, dD10, HArg12; Ci, Cii, Ciii on TATA scaffold
B5: heterotandem bicyclic peptide complex BCY8854 (peptide)
peptide 1: CPXDCMXDWSTPXWC
peptide 2: ACIEEGQYCFADPYXC
modifications: BCY7732: N-terminal acetyl; Nle12; C-terminal Dap (diaminopropionic acid) bearing the linker; Ci, Cii, Ciii on TATA scaffold; BCY8846: N-terminal [PYA]-[B-Ala]-[Sar10]- (linker on PYA); 1Nal2, dD3, HArg5, HyP11; Ci, Cii, Ciii on TATA scaffold
B6: heterotandem bicyclic peptide complex BCY10000 (peptide)
peptide 1: {Pent4ynoyl-βAla}-[Sar][Sar][Sar][Sar][Sar][Sar][Sar][Sar][Sar][Sar]CP[1Nal][dD]CM[hArg]DWSTP[Hyp]WC
peptide 2: Ac-C[tBuAla]PE[dA]PYCFADPY[Nle]C[Dap]
modifications: linker I:11-I:15-I:25, II:1-II:8-II:15 via TATA; not fully specified (C-terminus); numbers in words are those of the source; also: linker to a chain's N/C-terminus via PEG12
B7: heterotandem bicyclic peptide complex BCY10571 (peptide)
peptide 1: CP[1Nal][dD]CM[hArg]DWSTP[Hyp]WC
peptide 2: Ac-C[tBuAla]PK(Pent4ynoyl)[dA]PYCFADPY[Nle]CA
modifications: linker I:1-I:5-I:15, II:1-II:8-II:15 via TATA; not fully specified (C-terminus, bridges); also: chains joined by PEG5 linker on chain 1 N-terminus, triazole to K(PYA)

Key:
[1] = target: CD137 expressed on cells (CHO cells expressing CD137; Jurkat cells of the Promega CD137 luciferase reporter assay) (UniProt Q07011); test: cell-based or functional assay
Chain of CD137 expressed on cells (CHO cells expressing CD137; Jurkat cells of the Promega CD137 luciferase reporter assay) (Q07011 24-255 limits assumed): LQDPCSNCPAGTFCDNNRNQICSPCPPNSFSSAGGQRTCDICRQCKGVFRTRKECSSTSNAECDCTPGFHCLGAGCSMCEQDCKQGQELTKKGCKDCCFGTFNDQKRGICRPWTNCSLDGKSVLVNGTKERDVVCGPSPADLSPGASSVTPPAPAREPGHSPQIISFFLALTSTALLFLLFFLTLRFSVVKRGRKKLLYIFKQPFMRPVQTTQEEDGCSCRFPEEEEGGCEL

[2] = target: T2, Recombinant human CD137 (R&D systems) (human, UniProt Q07011 24-186, biotinylated with EZ-Link Sulfo-NHS-LC-LC-Biotin); test: SPR (Biacore), biotinylated human CD137 on streptavidin chip
T2 construct: Bought protein; also called human CD137 protein; TNFRSF9
Description: The protein was desalted to remove uncoupled biotin using spin columns into PBS.
For analysis of peptide binding, a Biacore T200 or a Biacore 3000 instrument was used with a XanTec CMD500D chip. Streptavidin was immobilized on the chip using standard amine-coupling chemistry at 25° C. with HBS-N (10 mM HEPES, 0.15 M NaCl, pH 7.4) as the running buffer. Briefly, the carboxymethyl dextran surface was activated with a 7 min injection of a 1:1 ratio of 0.4 M 1-ethyl-3-(3-dimethylaminopropyl) carbodiimide hydrochloride (EDC)/0.1 M N-hydroxy succinimide (NHS) at a flow rate of 10 μl/min. For capture of streptavidin, the protein was diluted to 0.2 mg/ml in 10 mM sodium acetate (pH 4.5) and captured by injecting 120 μl of onto the activated chip surface. Residual activated groups were blocked with a 7 min injection of 1 M ethanolamine (pH 8.5) and biotinylated CD137 captured to a level of 270-1500 RU. Buffer was changed to PBS/0.05% Tween 20 and a dilution series of the peptides was prepared in this buffer with a final DMSO concentration of 0.5%. The top peptide concentration was 500 nM with 6 further 2-fold or 3-fold dilutions. The SPR analysis was run at 25° C. at a flow rate of 90 μl/min with 60 seconds association and 900 seconds dissociation. After each cycle a regeneration step (10 μl of 10 mM glycine pH 2) was employed. Data were corrected for DMSO excluded volume effects as needed. All data were double-referenced for blank injections and reference surface using standard processing procedures and data processing and kinetic fitting were performed using Scrubber software, version 2.0c (BioLogic Software). Data were fitted using simple 1:1 binding model allowing for mass transport effects where appropriate.

[3] = target: T1, Human Nectin-4 (residues Gly32-Ser349; …); test: SPR (Biacore 3000), biotinylated human Nectin-4 on streptavidin chip
Description: Streptavidin was immobilized on the chip using standard amine-coupling chemistry at 25° C. with HBS-N (10 mM HEPES, 0.15 M NaCl, pH 7.4) as the running buffer. […] Buffer was changed to PBS/0.05% Tween 20 and a dilution series of the peptides was prepared in this buffer with a final DMSO concentration of 0.5%. […] Data were corrected for DMSO excluded volume effects. All data were double-referenced for blank injections and reference surface using standard processing procedures and data processing and kinetic fitting were performed using Scrubber software, version 2.0c (BioLogic Software). Data were fitted using simple 1:1 binding model allowing for mass transport effects where appropriate.

human EphA2 protein = target: T3, human EphA2 protein (human, UniProt P29317 25-534, limits assumed, biotinylated with EZ-Link Sulfo-NHS-LC-Biotin); test: SPR (Biacore T200), biotinylated human EphA2 on streptavidin chip
T3 construct: Construct not described
T3 sequence (P29317 25-534 limits assumed): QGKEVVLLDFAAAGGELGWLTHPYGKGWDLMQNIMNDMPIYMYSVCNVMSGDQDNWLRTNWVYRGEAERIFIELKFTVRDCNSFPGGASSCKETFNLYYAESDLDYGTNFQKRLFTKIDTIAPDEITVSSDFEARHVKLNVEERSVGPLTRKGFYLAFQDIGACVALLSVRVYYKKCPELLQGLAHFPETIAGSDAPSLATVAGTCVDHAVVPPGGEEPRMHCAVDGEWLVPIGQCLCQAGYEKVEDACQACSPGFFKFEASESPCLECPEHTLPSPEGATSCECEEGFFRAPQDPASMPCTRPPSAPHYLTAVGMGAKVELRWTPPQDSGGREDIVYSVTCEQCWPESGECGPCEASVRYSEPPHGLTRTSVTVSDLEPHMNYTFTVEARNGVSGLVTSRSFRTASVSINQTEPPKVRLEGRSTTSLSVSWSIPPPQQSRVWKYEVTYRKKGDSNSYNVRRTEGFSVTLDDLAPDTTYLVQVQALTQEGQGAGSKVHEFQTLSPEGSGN
Description: Streptavidin was immobilized on the chip using standard amine-coupling chemistry at 25° C. with HBS-N (10 mM HEPES, 0.15 M NaCl, pH 7.4) as the running buffer. Briefly, the carboxymethyl dextran surface was activated with a 7 min injection of a 1:1 ratio of 0.4 M 1-ethyl-3-(3-dimethylaminopropyl) carbodiimide hydrochloride (EDC)/0.1 M N-hydroxy succinimide (NHS) at a flow rate of 10 μl/min. […] Data were corrected for DMSO excluded volume effects. All data were double-referenced for blank injections and reference surface using standard processing procedures and data processing and kinetic fitting were performed using Scrubber software, version 2.0c (BioLogic Software). Data were fitted using simple 1:1 binding model allowing for mass transport effects where appropriate.

[4] = target: CD137 on human PBMC (anti-CD3 stimulated) (human, UniProt Q07011 24-255); test: cell-based or functional assay
Chain of CD137 on human PBMC (anti-CD3 stimulated) (Q07011 24-255): as the sequence (Q07011 24-255 limits assumed) above

[5] = target: CD137 expressed on cells (CHO cells expressing CD137); Jurkat cells of the Promega CD137 luciferase reporter … (UniProt Q07011 24-255, limits assumed); test: cell-based or functional assay
Chain of CD137 expressed on cells (CHO cells expressing CD137); Jurkat cells of the Promega CD137 luciferase reporter … (Q07011 24-255 limits assumed): as above

Binder	EC50 (nM), CD137 reporter assay, co-culture with PC3 (EphA2) [1]	Fold Induction over Background, CD137 reporter assay, co-culture with PC3 (EphA2) [1]	Fold Induction over Background, CD137 reporter assay, co-culture with H1376 (Nectin4) [1]	Kd [2]	Kd [3]	Kd (human EphA2 protein)	EC50 (nM), IFN-γ secretion, human PBMC co-culture with 4T1-D02(Nectin4+) [4]	max IFN-γ (pg/ml), human PBMC co-culture with 4T1-D02(Nectin4+) [4]	EC50 (nM), CD137 reporter assay, co-culture with H1376 (Nectin4) [5]
B1	0.28 nM	37 fold	–	–	–	–	–	–	–
B2	–	–	< 2 fold	69.4 nM	–	–	–	–	–
B3	–	–	< 2 fold	3640 nM	2.47 nM	–	–	–	–
B4	–	< 2 fold	–	853 nM	–	1.7 nM	–	–	–
B5	–	–	–	108 nM	2.76 nM	–	0.89 nM	16000 pg/mL	1.2 nM
B6	–	–	–	6.19 nM	2.26 nM	–	0.21 nM	19600 pg/mL	0.58 nM
B7	–	–	–	12 nM	–	–	0.44 nM	18300 pg/mL	–
